In the supplement of paper PMC9170038:

Tested on: MS2 coat protein
Assay: apparent KD of MS2 coat protein; designed switch direction (-1 OFF switch, 1 ON switch): -1; higher = weaker reporter binding
Summary of the method: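 Designed RNA switches with common flanks were made on Illumina chips by stalled E. coli RNA polymerase. Titration with SNAP-549-labelled MS2 coat protein doubled from 0.7 or 1.5 nM up to 3 µM. Apparent KD is each design's median over clusters after curve-fitting normalised fluorescence.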

[1] = Eterna round: R95, input ligand: FMN 200 uM
[2] = Eterna round: R95, input ligand: microRNA oligo, concentration not stated
[3] = Eterna round: R95, input ligand: none
[4] = input ligand: microRNA oligo, concentration not stated

Sequence | apparent KD of MS2 coat protein (input ligand: FMN 200 uM) | apparent KD of MS2 coat protein (input ligand: none) | apparent KD of MS2 coat protein [1] | apparent KD of MS2 coat protein [2] | apparent KD of MS2 coat protein [3] | apparent KD of MS2 coat protein [4]
UAUAACCAAGGAUAUACAUGAGGAUCACCCAUGUAAUAUAAUAUAAUAUAAAUAAAAUGUAGAAGGUGGGAUAU (Eterna round: R97, puzzle: Exclusion 3) | 26.6 nM | 31.4 nM | – | – | – | –
CCGAAUAUGUAGGAUAUCGUAUCGGAAACGAUACGAGAAGGACAAACAUGAGGAUCACCCAUGUUCCUUAACGG [Fiskers Ex 6 - 12] (puzzle: Exclusion 6) | – | – | 18.5 nM | 15.6 nM | 15 nM | –
AGAUCACAUGAGGAUCACCCAUGUCAGGAUAUCGACUGAUCAGCUUCGGCUGAUCAGUCGAGAAGGGACAAUUA [E1/1-A2] (Eterna round: R97, puzzle: Exclusion 1) | 511 nM | 280 nM | – | – | – | –
CGAGUGUAAGGAUAUUCGGCGCCAGGGAACGACCUGGCGUAGAAGAAGGUACAUGAGGAUCACCCAUGUGGUUA [Issobi] (puzzle: Exclusion 4) | – | – | – | 142 nM | – | –
AAUGAGCGAGGAUAUGCAACUGUAUGACCUACGUGUGCCAGACAUGAGGAUCACCCAUGUAGAAGGUGCUUUCC [Israte] (Eterna round: R96, puzzle: Exclusion 2) | 59.9 nM | 57 nM | – | – | – | 45.3 nM
UACAUGAGGAUCACCCAUGUUUUGUCGUGUAUGGUAUUUAUCUAGGAUAUCAAUUGAUUUAUUCAUGAGAAGGAGAAUAUUAAU [JMF's solution 64] (Eterna round: R96, puzzle: Exclusion NG 3) | 34.1 nM | 39.8 nM | – | – | – | 31.4 nM
CUGGUCCGAGGAUAUAUUAAGUGAAACAUGAGGAUCACCCAUGUUAUUUAAUGGAAAUAAAUAGAAGGCGGACUAG [Mat - Exclusion 5 - JL mod - D55] (puzzle: Exclusion 5) | – | – | 34.4 nM | 33.7 nM | 59.9 nM | –
CUUAAACAUGAGGAUCACCCAUGUCAGGAUAUGAUACUAUGUACUUCGGUACAUAGUAUCAGAAGGGAUAUAAA [Ex1-3: 65] (puzzle: Exclusion 1) | – | – | – | 39.3 nM | – | –
UUAUAUAAUGUGAGGAUAUGCUGGUCGAGAGAUCAGCAGAAGGCACAUGAGGAUCACCCAUGUAGUAAAUUUUA [Mat - Exclusion 4 - JL Mod - D14] (puzzle: Brourd's mod of Exclusion 4) | – | – | – | 19.8 nM | – | –
ACAUGAGGAUCACCCAUGUAAACAUGAUGGCUGAUGUAGAGCUAGGAUAUGAGUGACUUUCUAUCUCAGAAGGAGCUUGACUGG [Deportation 44 - Jieux - Exclusion NG 3] (Eterna round: R96, puzzle: Exclusion NG 3) | 30.1 nM | 45.2 nM | – | – | – | 26.9 nM
ACCGAAGCAGGAUAUACAUGAGGAUCACCCAUGUGCUUGCAUGGCGUGGGAAGUCAUAGUAGAAGGGCUACGCC [Onzaza] (Eterna round: R97, puzzle: Exclusion 3) | 53 nM | 22.4 nM | – | – | – | –
CUAGCUAUUGUAGGAUAUCGAUGUGUUUCACAUCGAGAAGGACAUGAGGAUCACCCAUGUGAAAGGAUCGUGAGAUCCAGCUAG [JL ENG1 3.76] (Eterna round: R96, puzzle: Exclusion NG 1) | 81.9 nM | 23.5 nM | – | – | – | 18.7 nM
AAUACAAGCUAUUGAUCCCACAUGAGGAUCACCCAUGUAGGUGGCCGUGAGACCACCUUUACGAUAGCUCGUCUUAU [Sensor-V1 #51] (Eterna round: R97, puzzle: Sensor, turn-off variant 1) | 277 nM | 274 nM | – | – | – | –
UUUAUUUUGCAAGGAUAUGUUUAAUUUUAGUUUCCUUAUACAUGAGGAUCACCCAUGUUAUACUUACAGAAGGUGCAUAAUUUU [JR_ExcNG2_Sub037] (Eterna round: R96, puzzle: Exclusion NG 2) | – | – | – | – | – | 68.7 nM
UGAGUGCUGCGAGGAUAUACAUGAGGAUCACCCAUGUAAACGUGUGAGGCUUUGCCUCACACGAUGUAGAAGGCGCAGUACUCU [JL ENG2 1.05] (Eterna round: R96, puzzle: Exclusion NG 2) | 18.4 nM | 14 nM | – | – | – | 9.25 nM
GCCAUGUAAGGAUAUAACCGUCUUCAUGAACAAUGAGGAUGUUAGAAGGUACAUGAGGAUCACCCAUGUCCUUC [Eternabot (Original) Solution 6] (Eterna round: R97, puzzle: Exclusion 4) | 15.7 nM | 12.5 nM | – | – | – | –
CGUGCGUAUGUGAGGAUAUGCUGGUCCUUGGAUCGGCAGAAGGCACAUGAGGAUCACCCAUGUGGUGUCGUUCU [salish99_Bmod_ex4_092] (puzzle: Brourd's mod of Exclusion 4) | – | – | – | 129 nM | – | –
AGAUGGCGAGGAUAUACAUGAGGAUCACCCAUGUGAAGAUAAUAAGUGAGGAAGAAAAGUAGAAGGCGCUGUCA [Mat - Exclusion 3 - Mod of Salish D26] (puzzle: Exclusion 3) | – | – | 398 nM | 72.6 nM | 70.4 nM | –

Sequence | apparent KD of MS2 coat protein (input ligand: FMN 200 uM) | apparent KD of MS2 coat protein (input ligand: none) | apparent KD of MS2 coat protein [1] | apparent KD of MS2 coat protein [2] | apparent KD of MS2 coat protein [3] | apparent KD of MS2 coat protein [4]
GGCCUACGAGGAUAUCGCUAGCGGGACAUGAGGAUCACCCAUGUGUCGGACCGCGUCAUGCGAGAAGGUGUAAUGA [Ribeceve] (puzzle: Exclusion 5) | – | – | – | 14.9 nM | – | –
AGAGUGCUGCGAGGAUAUACAUGAGGAUCACCCAUGUAAAAGUGUGAGGCAAAGCCUCACACUAUGUAGAAGGCGCAGUACUCA [Mat - Exclusion NG 2 - Mod of JL - D11] (Eterna round: R96, puzzle: Exclusion NG 2) | 20.2 nM | 19.3 nM | – | – | – | 12.6 nM
GGAAGGAGAGGAUAUGAGGGAGAGAACAUGAGGAUCACCCAUGUGAGACCUCAGGAUCGAUCAGAAGGCUCAGUCC [AK-MS2ROC-r4-exclusion5-12] (Eterna round: R97, puzzle: Exclusion 5) | 692 nM | 232 nM | – | – | – | –
AUGGCGUUAGGAUAUACUAUGGGCCUGGACAGUGCACCUCCACAUGAGGAUCACCCAUGUAGAAGGAACUCGAG [Eternabot (L2) Solution 99] (Eterna round: R97, puzzle: Exclusion 2) | 26.9 nM | 20.8 nM | – | – | – | –
CGUCCACUUGAGGAUCACCCAAGUUAGGAUAUCUCCCGGCUCGCAAAUGCAGUCGGUCAGAGAAGGAACCAGGG [Qualaon] (Eterna round: R97, puzzle: Exclusion 1) | 59.6 nM | 26.7 nM | – | – | – | –
AAGAAACAUGAGGAUCACCCAUGUGAGGAUAUGACAAAGAAAAGAAAAGAAAGAAGAAUCAGAAGGCACAAAGG [salish99-ex1_r3_033] (puzzle: Exclusion 1) | – | – | 121 nM | 83.1 nM | 96.6 nM | –
AUAAUGUGAGGAUAUCAGUCGACUAGCUGCGGCUAGUCGACUGAGAAGGUACAUGAGGAUCACCCAUGUAGAUC [E4/20-A3] (Eterna round: R97, puzzle: Exclusion 4) | 77.9 nM | 29.4 nM | – | – | – | –
UAUUAGCAAGUGAGAUCCCACAUGAGGAUCACCCAUGUGCUCGUCUUUUAACGUACUGUGAGGAAACUCACGGUACG [Sensor-V1 #82] (Eterna round: R97, puzzle: Sensor, turn-off variant 1) | 62.1 nM | 67.1 nM | – | – | – | –
GGAAGGUGAGGAUAUACUAAGCCGGAAACGGCAGGUGGGAGACAUGAGGAUCACCCAUGUAGAAGGCACGGAGA [AK-MS2ROC-r4-exclusion2-18] (Eterna round: R97, puzzle: Exclusion 2) | 703 nM | 113 nM | – | – | – | –
UUAAAUCAUGUAGGAUAUGCGUGGCGAAGCUAUGCAGAAGGACAUGAGGAUCACCCAUGUGCUUCCGUCUGAGUACAGACGGUA [Mat - Exclusion NG 1 - Mod of JL - D11] (Eterna round: R96, puzzle: Exclusion NG 1) | 221 nM | 101 nM | – | – | – | 106 nM
CCUUGUGUUGAGGAUAUGCGCCGGCUCGCUGGCGCAGAAGGCGGCACAUGAGGAUCACCCAUGUCAGUUCGCGG [salish99_ex6_r004_013] (Eterna round: R97, puzzle: Exclusion 6) | 426 nM | 116 nM | – | – | – | –
UUUAAUUUUUUUUUUUUACAAGCUUUUUGCUCGUCUUAUACAUGAGGAUCACCCAUGUAGGUGGGAGAUAAAUUAUC [JMF 23] (puzzle: Sensor v3, turn-off variant 2) | – | – | 87.8 nM | 392 nM | 131 nM | –
GGUGGACAUGAGGAUCACCCAUGUGAGGAUAUCGGCUAUCUACUCGCUGACGGCUGCUCGAGAAGGCACAUUGU [Exclusion 1 V91] (puzzle: Exclusion 1) | – | – | – | 54.6 nM | – | –
CAUGAUUGGGAAGGAUAUUGACCUAGUUAGCGCCGAGAAGGUCCCUGUCACAUGAGGAUCACCCAUGUGAAUCUGGUGAAAGAG [Ex NG1 #93] (Eterna round: R96, puzzle: Exclusion NG 1) | 26.1 nM | 22.9 nM | – | – | – | 16.6 nM
CCGCUGUGAGGAUAUUAGUAGUAGUCAGAAAAGACUAUUACUGAGAAGGCACAUGAGGAUCACCCAUGUGGCGG [Mat - Exclusion 4 - Eli Mod - D47] (Eterna round: R97, puzzle: Exclusion 4) | 31.4 nM | 21.5 nM | – | – | – | –
CCUCGACGGUAGGAUAUCGUCAAACUAUUGUGAUGAGAAGGACUGACAUGAGGAUCACCCAUGUUAACGUGAUA [Exclusion 6 - 7:b] (puzzle: Exclusion 6) | – | – | – | 17.1 nM | – | –
AGAUCGUCAGGAUAUACAUGAGGAUCACCCAUGUGUAGUCUAAAUUUGACUACAAUAUGUAGAAGGGACGAUCG [Exclusion 3 (MOD3 of #1 Marzena11)] (Eterna round: R97, puzzle: Exclusion 3) | 98.9 nM | 42.8 nM | – | – | – | –
